Laboratory results published in patent US20250059297A1.

Legend:
[1] = molecular target: HER2 and TROP2 expressed together on NCI-H292 cells and NCI-N87 cells (human); assay: cell-based or functional assay
[2] = molecular target: human HER2 (hHER2) on cells (human); assay: cell-based or functional assay
[3] = molecular target: human HER2 (hHER2) on cells (human); assay: flow cytometry, NCI-N87 cells (express HER2 and TROP2)
[4] = molecular target: human HER2 (hHER2) on cells (human); assay: flow cytometry, NCI-H292 cells (express HER2 and TROP2)

Row | Substance | endocytosis, direct detection: MFI [1] | endocytosis, direct detection: Percentage of Positive Population [1] | endocytosis, indirect detection: MFI [1] | endocytosis, indirect detection: Percentage of Positive Population [1] | endocytosis: MFI [2] | endocytosis: Percentage of Positive (%) [2] | endocytosis, direct detection: MFI [2] | endocytosis, direct detection: Percentage of Positive Population [2] | endocytosis, indirect detection: MFI [2] | endocytosis, indirect detection: Percentage of Positive Population [2] | flow cytometry test result (%) [3] | flow cytometry test result (%) [4]
1 | Isotype control (antibody) | 4900 | 1.86% | 4920 | 1.88% | 9840 | 1.1% | – | – | – | – | – | –
2 | Pertuzumab analog (antibody) | – | – | – | – | 100000 | 97.1% | 15700 | 74.7% | 21000 | 79.5% | – | –
3 | Trastuzumab analog (antibody) | – | – | – | – | 50400 | 88% | 18900 | 82.5% | 23400 | 87.3% | 98.5% | 97.8%
